Measured values reported in PMC3217976, “A Conserved GA Element in TATA-Less RNA Polymerase II Promoters”.

What was measured:
TBPcore;TFIIB [1] = target: T1, TBPcore;TFIIB (Saccharomyces cerevisiae?;Saccharomyces …, UniProt P13393;P29055 61-240;1-345, |); test: EMSA; 300 nM TBPcore, 3 uM TFIIB, 50 ug/ml heparin; EMSA: 3 nM DNA, 300 nM TBPcore, 3 uM TFIIB, 4 mM Tris-HCl pH 8.0, 60 mM KCl, 5 mM MgCl2, 4% glycerol, 1 mM DTT, 100 ug/ml BSA, 0.1% Tween 20, 50 ug/ml heparin; details: protein: recombinant;recombinant; tags: ;; copies: 1;1; label: 5'-Cy5 on coding strand; blunt
T1 sequence 1: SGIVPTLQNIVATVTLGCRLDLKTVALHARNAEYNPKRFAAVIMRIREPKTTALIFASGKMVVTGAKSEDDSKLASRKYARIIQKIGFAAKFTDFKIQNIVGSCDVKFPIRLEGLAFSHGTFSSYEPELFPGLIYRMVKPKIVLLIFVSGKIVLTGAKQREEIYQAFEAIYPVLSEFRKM
T1 sequence 2: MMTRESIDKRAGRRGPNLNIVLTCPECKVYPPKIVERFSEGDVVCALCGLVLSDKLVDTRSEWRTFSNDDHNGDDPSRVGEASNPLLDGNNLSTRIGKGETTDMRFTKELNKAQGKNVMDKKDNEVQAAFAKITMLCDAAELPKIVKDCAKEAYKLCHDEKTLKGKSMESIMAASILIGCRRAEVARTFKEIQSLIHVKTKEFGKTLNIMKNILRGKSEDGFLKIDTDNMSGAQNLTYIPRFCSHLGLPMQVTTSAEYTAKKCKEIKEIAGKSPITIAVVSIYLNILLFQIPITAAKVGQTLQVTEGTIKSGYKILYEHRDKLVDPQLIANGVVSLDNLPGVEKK

TBPcore [2] = target: T2, TBPcore (UniProt P13393 61-240); test: EMSA; 300 nM TBPcore, 50 ug/ml heparin; EMSA: 3 nM DNA, 300 nM TBPcore, 3 uM TFIIB, 4 mM Tris-HCl pH 8.0, 60 mM KCl, 5 mM MgCl2, 4% glycerol, 1 mM DTT, 100 ug/ml BSA, 0.1% Tween 20, 50 ug/ml heparin; details: protein: recombinant; label: 5'-Cy5 on coding strand; blunt
T2 sequence: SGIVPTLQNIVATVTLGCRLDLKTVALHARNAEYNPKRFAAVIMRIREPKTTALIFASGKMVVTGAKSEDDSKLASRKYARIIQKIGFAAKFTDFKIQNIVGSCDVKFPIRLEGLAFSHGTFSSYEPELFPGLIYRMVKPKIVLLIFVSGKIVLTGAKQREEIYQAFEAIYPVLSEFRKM

TBPcore [3] = target: T2, TBPcore; test: EMSA; not impaired; EMSA: 3 nM DNA, 300 nM TBPcore, 3 uM TFIIB, 4 mM Tris-HCl pH 8.0, 60 mM KCl, 5 mM MgCl2, 4% glycerol, 1 mM DTT, 100 ug/ml BSA, 0.1% Tween 20, 50 ug/ml heparin; details: protein: recombinant; label: 5'-Cy5 on coding strand; blunt
TBPcore;TFIIB [4] = target: T1, TBPcore;TFIIB; test: as above; details: protein: recombinant;recombinant; tags: ;; copies: 1;1; label: 5'-Cy5 on coding strand; blunt
TBPcore [5] = target: T2, TBPcore; test: EMSA; GAE region not sufficient for binding; EMSA: 3 nM DNA, 300 nM TBPcore, 3 uM TFIIB, 4 mM Tris-HCl pH 8.0, 60 mM KCl, 5 mM MgCl2, 4% glycerol, 1 mM DTT, 100 ug/ml BSA, 0.1% Tween 20, 50 ug/ml heparin; details: protein: recombinant; label: 5'-Cy5 on coding strand; blunt
TBPcore;TFIIB [6] = target: T1, TBPcore;TFIIB; test: as above; details: protein: recombinant;recombinant; tags: ;; copies: 1;1; label: 5'-Cy5 on coding strand; blunt
TBPcore [7] = target: T2, TBPcore; test: EMSA; not affected vs TMT1 (GAE); EMSA: 3 nM DNA, 300 nM TBPcore, 3 uM TFIIB, 4 mM Tris-HCl pH 8.0, 60 mM KCl, 5 mM MgCl2, 4% glycerol, 1 mM DTT, 100 ug/ml BSA, 0.1% Tween 20, 50 ug/ml heparin; details: protein: recombinant; label: 5'-Cy5 on coding strand; blunt
TBPcore;TFIIB [8] = target: T1, TBPcore;TFIIB; test: as above; details: protein: recombinant;recombinant; tags: ;; copies: 1;1; label: 5'-Cy5 on coding strand; blunt

B1: HIS4 (TATA) (dsDNA)
DNA 1: ACAGTAGTATACTGTGTATATAATAGATATGGAACGTTAT
DNA 2: ATAACGTTCCATATCTATTATATACACAGTATACTACTGT
B1: binds (TBPcore;TFIIB [1]); binds (TBPcore [2]).

B2: TMT1 (TATA) (dsDNA)
DNA 1: ATTTTCATTTTTTATATAATATGTAACTAATTTAGT
DNA 2: ACTAAATTAGTTACATATTATATAAAAAATGAAAAT
B2: binds (TBPcore [3]); binds (TBPcore;TFIIB [4]).

B3: HIS4 (GAE) (dsDNA)
DNA 1: TAGTATACTGTGAAAGGAAAAGGAAGATATGGAACGTTAT
DNA 2: ATAACGTTCCATATCTTCCTTTTCCTTTCACAGTATACTA
B3: no binding (TBPcore [5]); no binding (TBPcore;TFIIB [6]).

B4: TMT1 (GAE) (dsDNA)
DNA 1: ATTTTCATTTTTAAAGGAAAAGGAATGTAACTAATTTAGT
DNA 2: ACTAAATTAGTTACATTCCTTTTCCTTTAAAAATGAAAAT
B4: binds (TBPcore;TFIIB [1]); binds (TBPcore [2]).

B5: TMT1 (A-12) (dsDNA)
DNA 1: ATTTTCATTTTTAAAAAAAAAAAAATGTAACTAATTTAGT
DNA 2: ACTAAATTAGTTACATTTTTTTTTTTTTAAAAATGAAAAT
B5: binds (TBPcore [7]); binds (TBPcore;TFIIB [8]).
